According to publication PMC12990809:

Experiments:
Test in all cases: pulldown
[1] = target: T1, CBG13971 (Caenorhabditis briggsae) (UniProt A8XIX4); settings: 20 nM protein, 1.5 uM RNA pool; 20 mM HEPES pH 7.8, 70 mM KCl, 10 mM NaCl, 10% glycerol, 2 mM DTT, 0.1 ug/uL BSA; 30 min, 4 C
T1 sequence: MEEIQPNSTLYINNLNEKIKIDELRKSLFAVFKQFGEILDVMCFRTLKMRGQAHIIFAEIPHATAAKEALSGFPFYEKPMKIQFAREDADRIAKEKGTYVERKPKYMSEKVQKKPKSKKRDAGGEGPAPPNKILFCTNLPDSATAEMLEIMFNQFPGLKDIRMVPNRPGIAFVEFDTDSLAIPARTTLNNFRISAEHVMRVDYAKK

rbm38 (Danio rerio) = target: T2, rbm38 (Danio rerio) (UniProt A0A8M1NF18); settings: 20 nM protein, 1.5 uM RNA pool; 20 mM HEPES pH 7.8, 70 mM KCl, 10 mM NaCl, 10% glycerol, 2 mM DTT, 0.1 ug/uL BSA; 30 min, 4 C (protocol of this paper; not …); cited from earlier work
T2 sequence: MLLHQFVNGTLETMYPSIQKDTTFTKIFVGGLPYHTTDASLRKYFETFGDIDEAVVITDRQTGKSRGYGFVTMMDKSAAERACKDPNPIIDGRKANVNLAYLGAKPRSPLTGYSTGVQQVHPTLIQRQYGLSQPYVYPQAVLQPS

[2] = target: T3, CBG04067 ins404_V (Caenorhabditis briggsae) (UniProt Q6E3D5); settings: 20 nM protein, 1.5 uM RNA pool; 20 mM HEPES pH 7.8, 70 mM KCl, 10 mM NaCl, 10% glycerol, 2 mM DTT, 0.1 ug/uL BSA; 30 min, 4 C
T3 sequence: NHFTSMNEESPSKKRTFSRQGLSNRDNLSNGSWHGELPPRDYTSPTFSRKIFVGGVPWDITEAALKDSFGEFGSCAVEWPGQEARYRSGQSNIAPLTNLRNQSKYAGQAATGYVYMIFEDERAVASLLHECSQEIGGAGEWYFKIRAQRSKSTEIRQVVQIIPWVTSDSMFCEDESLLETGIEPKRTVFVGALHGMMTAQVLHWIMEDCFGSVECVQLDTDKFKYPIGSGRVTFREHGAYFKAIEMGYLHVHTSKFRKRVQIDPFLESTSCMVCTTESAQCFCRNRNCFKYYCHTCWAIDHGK

A1CF (Gallus gallus) = target: T4, A1CF (Gallus gallus) (UniProt A0A8V0ZPX5); settings: 20 nM protein, 1.5 uM RNA pool; 20 mM HEPES pH 7.8, 70 mM KCl, 10 mM NaCl, 10% glycerol, 2 mM DTT, 0.1 ug/uL BSA; 30 min, 4 C (protocol of this paper; not …); cited from earlier work
T4 sequence: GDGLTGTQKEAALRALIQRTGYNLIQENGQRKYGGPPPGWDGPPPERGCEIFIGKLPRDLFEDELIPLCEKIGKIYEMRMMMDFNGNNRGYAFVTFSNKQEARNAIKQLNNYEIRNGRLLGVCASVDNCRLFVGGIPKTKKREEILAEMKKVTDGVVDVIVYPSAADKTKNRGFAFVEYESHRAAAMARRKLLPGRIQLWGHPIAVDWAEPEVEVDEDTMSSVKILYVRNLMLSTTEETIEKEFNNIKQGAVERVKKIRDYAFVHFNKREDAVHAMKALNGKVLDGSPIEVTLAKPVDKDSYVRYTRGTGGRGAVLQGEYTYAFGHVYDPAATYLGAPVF

[3] = target: T5, Y69A2AR.32 L314S (Caenorhabditis elegans) (UniProt H2L0S1); settings: 20 nM protein, 1.5 uM RNA pool; 20 mM HEPES pH 7.8, 70 mM KCl, 10 mM NaCl, 10% glycerol, 2 mM DTT, 0.1 ug/uL BSA; 30 min, 4 C
T5 sequence: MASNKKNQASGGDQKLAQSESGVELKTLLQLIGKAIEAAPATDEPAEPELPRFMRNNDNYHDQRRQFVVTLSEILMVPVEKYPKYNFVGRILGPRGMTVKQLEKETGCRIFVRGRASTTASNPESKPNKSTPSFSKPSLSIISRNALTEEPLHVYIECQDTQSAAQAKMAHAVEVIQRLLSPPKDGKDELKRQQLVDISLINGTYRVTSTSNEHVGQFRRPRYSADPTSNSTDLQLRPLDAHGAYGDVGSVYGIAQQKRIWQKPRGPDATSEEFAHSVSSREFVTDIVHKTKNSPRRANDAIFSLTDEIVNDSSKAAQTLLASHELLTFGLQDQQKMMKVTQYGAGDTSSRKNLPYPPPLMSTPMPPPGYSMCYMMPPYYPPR

HNRNPA1 (Homo sapiens) = HNRNPA1 (Homo sapiens) (UniProt P09651); settings: 20 nM protein, 1.5 uM RNA pool; 20 mM HEPES pH 7.8, 70 mM KCl, 10 mM NaCl, 10% glycerol, 2 mM DTT, 0.1 ug/uL BSA; 30 min, 4 C (protocol of this paper; not …); cited from earlier work
Sequence of HNRNPA1 (Homo sapiens) (P09651 1-226): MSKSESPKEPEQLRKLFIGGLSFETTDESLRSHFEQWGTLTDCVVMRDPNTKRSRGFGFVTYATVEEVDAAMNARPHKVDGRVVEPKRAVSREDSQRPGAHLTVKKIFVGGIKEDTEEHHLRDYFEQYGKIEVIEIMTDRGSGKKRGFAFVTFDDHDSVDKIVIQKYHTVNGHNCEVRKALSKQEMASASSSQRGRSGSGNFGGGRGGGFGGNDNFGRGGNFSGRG

[4] = target: T6, rbm24a (Tetraodon nigroviridis) (UniProt H3CUV7); settings: 20 nM protein, 1.5 uM RNA pool; 20 mM HEPES pH 7.8, 70 mM KCl, 10 mM NaCl, 10% glycerol, 2 mM DTT, 0.1 ug/uL BSA; 30 min, 4 C (protocol of this paper; not …); cited from earlier work
T6 sequence: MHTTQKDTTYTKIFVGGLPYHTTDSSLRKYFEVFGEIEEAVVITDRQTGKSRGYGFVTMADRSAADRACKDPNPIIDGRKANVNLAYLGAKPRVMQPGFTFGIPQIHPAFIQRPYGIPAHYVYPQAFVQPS

[5] = target: T7, csx1 (Schizosaccharomyces pombe) (UniProt O13759); settings: 20 nM protein, 1.5 uM RNA pool; 20 mM HEPES pH 7.8, 70 mM KCl, 10 mM NaCl, 10% glycerol, 2 mM DTT, 0.1 ug/uL BSA; 30 min, 4 C
T7 sequence: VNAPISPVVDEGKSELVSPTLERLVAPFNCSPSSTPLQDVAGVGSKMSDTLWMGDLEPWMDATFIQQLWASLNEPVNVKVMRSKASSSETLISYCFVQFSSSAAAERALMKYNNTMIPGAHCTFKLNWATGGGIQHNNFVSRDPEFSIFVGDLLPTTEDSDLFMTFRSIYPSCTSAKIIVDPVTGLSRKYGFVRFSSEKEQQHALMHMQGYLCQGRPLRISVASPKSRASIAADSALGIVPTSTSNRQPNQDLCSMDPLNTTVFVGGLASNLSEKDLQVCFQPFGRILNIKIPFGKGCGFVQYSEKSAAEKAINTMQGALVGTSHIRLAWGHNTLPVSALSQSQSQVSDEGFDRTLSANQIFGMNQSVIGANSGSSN

[6] = target: T8, PK03611.1 N266D (Cannabis sativa) (UniProt A0A7J6FG33); settings: 20 nM protein, 1.5 uM RNA pool; 20 mM HEPES pH 7.8, 70 mM KCl, 10 mM NaCl, 10% glycerol, 2 mM DTT, 0.1 ug/uL BSA; 30 min, 4 C
T8 sequence: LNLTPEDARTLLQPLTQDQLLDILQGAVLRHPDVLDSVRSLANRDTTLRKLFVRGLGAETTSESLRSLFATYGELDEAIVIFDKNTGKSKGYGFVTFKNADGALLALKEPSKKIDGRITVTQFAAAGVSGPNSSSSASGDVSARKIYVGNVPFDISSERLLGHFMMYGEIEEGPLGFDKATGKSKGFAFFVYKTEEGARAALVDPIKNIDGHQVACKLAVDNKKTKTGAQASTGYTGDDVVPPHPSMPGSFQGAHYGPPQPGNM

[7] = target: T9, PK22404.1 A169L;A170F;T171A;T450P (Cannabis sativa) (UniProt A0A803PFA7); settings: 20 nM protein, 1.5 uM RNA pool; 20 mM HEPES pH 7.8, 70 mM KCl, 10 mM NaCl, 10% glycerol, 2 mM DTT, 0.1 ug/uL BSA; 30 min, 4 C
T9 sequence: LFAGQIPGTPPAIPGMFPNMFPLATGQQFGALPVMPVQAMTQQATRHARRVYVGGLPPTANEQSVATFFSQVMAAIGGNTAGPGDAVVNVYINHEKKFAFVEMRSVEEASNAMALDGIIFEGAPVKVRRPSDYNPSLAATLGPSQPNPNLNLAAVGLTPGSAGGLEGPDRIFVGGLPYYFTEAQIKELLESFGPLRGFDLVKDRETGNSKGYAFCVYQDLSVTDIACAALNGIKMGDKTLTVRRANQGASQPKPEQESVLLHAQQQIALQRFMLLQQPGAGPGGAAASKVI

GCACUU [RNAcompete motif RNCMPT00323]
binding signal (z-score (mean of top ten 7-mers)) [1]: 11.2

GUGUGUG [RNAcompete motif RNCMPT00283]
binding signal (z-score (mean of top ten 7-mers)) (rbm38 (Danio rerio)): 9.92

GUUUUA [RNAcompete motif RNCMPT00341]
binding signal (z-score (mean of top ten 7-mers)) [2]: 9.44

UAAUUG [RNAcompete motif RNCMPT00291]
binding signal (z-score (mean of top ten 7-mers)) (A1CF (Gallus gallus)): 12

UACUNG [RNAcompete motif RNCMPT00324]
binding signal (z-score (mean of top ten 7-mers)) [3]: 22.8

UAGGGA [RNAcompete motif RNCMPT00022]
binding signal (z-score (mean of top ten 7-mers)) (HNRNPA1 (Homo sapiens)): 10

UGUGUG [RNAcompete motif RNCMPT00285]
binding signal (z-score (mean of top ten 7-mers)) [4]: 10.2

UGUUUU [RNAcompete motif RNCMPT00325]
binding signal (z-score (mean of top ten 7-mers)) [5]: 9.34

UUAUGUG [RNAcompete motif RNCMPT00326]
binding signal (z-score (mean of top ten 7-mers)) [6]: 8.16

UUUUUUG [RNAcompete motif RNCMPT00343]
binding signal (z-score (mean of top ten 7-mers)) [7]: 13.5
